# Experimental data from IntAct's records for PubMed 12361576.
# B1: Cofilin-1-A (Xenopus laevis (African clawed frog)), P45695 (parent)
# chain: MASGVMVSDDVIKVFNEMKVRHQLSPEDAKKRKKAVVFCLSDDKKTIILEPGKEILQGDIGCNVEDPYKTFVKMLPRNDCRYALYDALYETKETKKEDLVFVFWAPEEASLKSKMIYASSKDAIKKRLPGIKHEWQINTYEDVNDPCNLADKLGGNTVVSLEGKSVRS
# Variants of: B1
# Conditions: with 1433z_bovin YWHAZ
row,effect of a mutation on the interaction,Variant
1,decreasing interaction,S3A
